The values that follow come from patent publication CN117138036A.

One assay addresses 混合人源IL-4、IL-5 (human) (UniProt P05112). Briefly: cell-based or functional assay.
In a further assay the target is IL-5 (human) (UniProt P05113). Briefly: cell-based or functional assay.
Assay [1] addresses IL-4Rα (UniProt P24394). The assay is described as follows: cell-based or functional assay.
Assay [2] has as its target IL-4Rα (UniProt P24394). The assay is described as follows: blocking ELISA: IL-4Rα coated, biotin-IL-4; hIgG is the control, fitted value as printed. For orientation: In an ELISA, binding on a coated surface is turned into a signal by an enzyme label.

For the substance Dupilumab+Mepolizumab(1:1混合), in the assay with 混合人源IL-4、IL-5 (human), the EC50, IL4:IL5=1:1混合诱导TF-1增殖, 板8 was 1.73 nM; the EC50, IL4:IL5=1:2混合诱导TF-1增殖, 板10 stood at 1.96 nM; the EC50, IL4:IL5=1:3混合诱导TF-1增殖, 板12 came out at 0.88 nM; the EC50, IL4:IL5=1:4混合诱导TF-1增殖, 板14 came to 0.395 nM. Further, in the assay with 混合人源IL-4、IL-5 (human), the EC50, IL4:IL5=2:1混合诱导TF-1增殖, 板6 amounted to 1.28 nM; the EC50, IL4:IL5=3:1混合诱导TF-1增殖, 板4 was found to be 0.965 nM; the EC50, IL4:IL5=4:1混合诱导TF-1增殖, 板2 was 0.825 nM; the 试验窗口, IL4:IL5=1:1混合诱导TF-1增殖, 板8 is 1.92 倍. Moreover, in the assay with 混合人源IL-4、IL-5 (human), the 试验窗口, IL4:IL5=1:2混合诱导TF-1增殖, 板10 is 1.62 倍; the 试验窗口, IL4:IL5=1:3混合诱导TF-1增殖, 板12 was 1.76 倍; the 试验窗口, IL4:IL5=1:4混合诱导TF-1增殖, 板14 is 1.79 倍; the 试验窗口, IL4:IL5=2:1混合诱导TF-1增殖, 板6 was 1.76 倍. In addition, in the assay with 混合人源IL-4、IL-5 (human), the 试验窗口, IL4:IL5=3:1混合诱导TF-1增殖, 板4 is 1.67 倍 and the 试验窗口, IL4:IL5=4:1混合诱导TF-1增殖, 板2 was 1.68 倍.

As for “Human IgG1,kappa Isotype Control (antibody)”, in the assay with 混合人源IL-4、IL-5 (human), the EC50, IL4:IL5=1:1混合诱导TF-1增殖, 板8 was 14.7 nM; the EC50, IL4:IL5=1:2混合诱导TF-1增殖, 板10 came out at 0.00264 nM; the EC50, IL4:IL5=1:3混合诱导TF-1增殖, 板12 was found to be 0.00193 nM; the EC50, IL4:IL5=3:1混合诱导TF-1增殖, 板4 stood at 0.000915 nM. In the assay with 混合人源IL-4、IL-5 (human), the EC50, IL4:IL5=4:1混合诱导TF-1增殖, 板2 was found to be 0.105 nM; the 试验窗口, IL4:IL5=1:1混合诱导TF-1增殖, 板8 is 1.07 倍; the 试验窗口, IL4:IL5=1:2混合诱导TF-1增殖, 板10 was 0.99 倍; the 试验窗口, IL4:IL5=1:3混合诱导TF-1增殖, 板12 was 0.95 倍. For the same substance, in the assay with 混合人源IL-4、IL-5 (human), the 试验窗口, IL4:IL5=1:4混合诱导TF-1增殖, 板14 is 1.03 倍; the 试验窗口, IL4:IL5=2:1混合诱导TF-1增殖, 板6 is 0.99 倍; the 试验窗口, IL4:IL5=3:1混合诱导TF-1增殖, 板4 was 1.02 倍; the 试验窗口, IL4:IL5=4:1混合诱导TF-1增殖, 板2 was 1.01 倍.

In the assay with 混合人源IL-4、IL-5 (human), Mepolizumab (antibody) registered an EC50, IL4:IL5=1:1混合诱导TF-1增殖, 板7 of 14.9 nM; an EC50, IL4:IL5=1:2混合诱导TF-1增殖, 板9 of 0.00104 nM; an EC50, IL4:IL5=1:3混合诱导TF-1增殖, 板11 of 0.00147 nM; an EC50, IL4:IL5=1:4混合诱导TF-1增殖, 板13 of 1.1 nM. Besides, in the assay with 混合人源IL-4、IL-5 (human), the EC50, IL4:IL5=2:1混合诱导TF-1增殖, 板5 was 2.94 nM; the EC50, IL4:IL5=3:1混合诱导TF-1增殖, 板3 was 0.00132 nM; the EC50, IL4:IL5=4:1混合诱导TF-1增殖, 板1 came out at 0.0013 nM; the 试验窗口, IL4:IL5=1:1混合诱导TF-1增殖, 板7 is 1.11 倍. For the same substance, in the assay with 混合人源IL-4、IL-5 (human), the 试验窗口, IL4:IL5=1:2混合诱导TF-1增殖, 板9 is 1.06 倍; the 试验窗口, IL4:IL5=1:3混合诱导TF-1增殖, 板11 was 1.01 倍; the 试验窗口, IL4:IL5=1:4混合诱导TF-1增殖, 板13 was 1.14 倍; the 试验窗口, IL4:IL5=2:1混合诱导TF-1增殖, 板5 was 0.99 倍. For the same substance, in the assay with 混合人源IL-4、IL-5 (human), the 试验窗口, IL4:IL5=3:1混合诱导TF-1增殖, 板3 is 1.05 倍 and the 试验窗口, IL4:IL5=4:1混合诱导TF-1增殖, 板1 is 1.02 倍.

In the case of dupilumab (antibody), in the assay with 混合人源IL-4、IL-5 (human), the EC50, IL4:IL5=1:1混合诱导TF-1增殖, 板7 amounted to 0.57 nM; the EC50, IL4:IL5=1:2混合诱导TF-1增殖, 板9 came to 0.899 nM; the EC50, IL4:IL5=1:3混合诱导TF-1增殖, 板11 was determined as 0.343 nM; the EC50, IL4:IL5=1:4混合诱导TF-1增殖, 板13 was determined as 0.156 nM. In addition, in the assay with 混合人源IL-4、IL-5 (human), the EC50, IL4:IL5=2:1混合诱导TF-1增殖, 板5 came out at 0.452 nM; the EC50, IL4:IL5=3:1混合诱导TF-1增殖, 板3 amounted to 0.448 nM; the EC50, IL4:IL5=4:1混合诱导TF-1增殖, 板1 was 0.813 nM; the 试验窗口, IL4:IL5=1:1混合诱导TF-1增殖, 板7 is 1.77 倍. Further, in the assay with 混合人源IL-4、IL-5 (human), the 试验窗口, IL4:IL5=1:2混合诱导TF-1增殖, 板9 was 1.68 倍; the 试验窗口, IL4:IL5=1:3混合诱导TF-1增殖, 板11 was 1.53 倍; the 试验窗口, IL4:IL5=1:4混合诱导TF-1增殖, 板13 was 1.58 倍; the 试验窗口, IL4:IL5=2:1混合诱导TF-1增殖, 板5 is 1.6 倍. Moreover, the 试验窗口, IL4:IL5=4:1混合诱导TF-1增殖, 板1 with 混合人源IL-4、IL-5 (human) was 1.77 倍.

As usually defined, the EC50 is the concentration that produces a half-maximal response. Low readings indicate a more potent agent, high ones a less potent agent. The substance hIgG (antibody) gave an EC50, 中和IL-5诱导的TF-1细胞增殖 (control) with IL-5 (human) of 0.108 nM. In the assay with IL-4Rα [1], the EC50, 中和IL-4诱导的TF-1细胞增殖 (control) stood at 0.375 nM and the EC50, 中和IL-13诱导的TF-1细胞增殖 (control) amounted to 0.131 nM. Also, in the assay with IL-4Rα [2], the EC50 is 2.04 nM.
